Substitutions are numbered along the chain they refer to. Names may count otherwise. “And” between values parts separate entries of the source, which are not always exact repeats. Identical values can stand only once.
B1: PHGDH-Flag, expressed in PHGDH-KO peritoneal macrophages (enzyme, UniProt Q61753 1-533, looked up)
chain: MAFANLRKVLISDSLDPCCRKILQDGGLQVVEKQNLSKEELIAELQDCEGLIVRSATKVTADVINAAEKLQVVGRAGTGVDNVDLEAATRKGILVMNTPNGNSLSAAELTCGMIMCLARQIPQATASMKDGKWDRKKFMGTELNGKTLGILGLGRIGREVATRMQSFGMKTVGYDPIISPEVAASFGVQQLPLEEIWPLCDFITVHTPLLPSTTGLLNDSTFAQCKKGVRVVNCARGGIVDEGALLRALQSGQCAGAALDVFTEEPPRDRALVDHENVISCPHLGASTKEAQSRCGEEIAVQFVDMVKGKSLTGVVNAQALTSAFSPHTKPWIGLAEAMGTLMHAWAGSPKGTIQVVTQGTSLKNAGTCLSPAVIVGLLREASKQADVNLVNAKLLVKEAGLNVTTSHNPGVPGEQGSGECLLTVALAGAPYQAVGLVQGTTPMLQMLNGAVFRPEVPLRRGQPLLVFRAQPSDPGMLPTMIGLLAEAGVQLLSYQTSMVSDGEPWHVMGLSSLLPSLETWKQHVLEAFQFCF
notes: phosphoglycerate dehydrogenase (PHGDH); also called WT PHGDH; PHGDH-HA (methods); source: PHGDH-KO mouse peritoneal macrophages, transfected 48 h, in lysate
B2: PHGDH (V425M)-Flag, expressed in PHGDH-KO peritoneal macrophages (enzyme, UniProt Q61753 1-533, looked up)
chain: B1 chain with V425M
notes: phosphoglycerate dehydrogenase (PHGDH) with V425M made by site-directed mutagenesis; also called PHGDH (V425M)-HA (methods); source: PHGDH-KO mouse peritoneal macrophages, transfected 48 h, in lysate
B3: PHGDH, endogenous in mouse peritoneal macrophages (enzyme, UniProt Q61753 1-533, looked up)
chain: B1 chain
notes: phosphoglycerate dehydrogenase (PHGDH), endogenous in mouse peritoneal macrophages; Seen as tetramers and dimers after cross-linking of the lysate; also called endogenous PHGDH; source: endogenous, mouse peritoneal macrophage (PM) extract

Tests used:
[1] = molecular target: the molecule itself; assay: cross-linking; lysate of PHGDH-KO PMs transfected with PHGDH or PHGDH (V425M) for 48 h; 0.25 mM cross-linker (DSS in the legend, dimethyl suberimidate in the methods), room temperature 10 min; Western blot
[2] = molecular target: the molecule itself; assay: cross-linking; lysate of WT PMs (native lysis buffer), untreated or pretreated with 15 μM CBR-5884 for 6 h; 0.25 mM cross-linker (DSS in the legend, dimethyl suberimidate in the methods), room temperature 10 min; Western blot of PHGDH

| Protein | stoichiometry N [1] | stoichiometry N [2] |
| --- | --- | --- |
| B1 | 4 | – |
| B2 | 4 and 2 | – |
| B3 | – | 4 and 2 |

— publication PMC12509985, “Phosphoglycerate dehydrogenase interacts with and inhibits the protein kinase TAK1 to mitigate septic shock” (The Journal of Biological Chemistry, 2025)
